Experimental data reported in IntAct's records for PubMed 25910212.

B1: EF-hand domain-containing protein 1 (Homo sapiens), Q5JVL4 (parent)
chain: MVSNPVHGLPFLPGTSFKDSTKTAFHRSQTLSYRNGYAIVRRPTVGIGGDRLQFNQLSQAELDELASKAPVLTYGQPKQAPPADFIPAHVAFDKKVLKFDAYFQEDVPMSTEEQYRIRQVNIYYYLEDDSMSVIEPVVENSGILQGKLIKRQRLAKNDRGDHYHWKDLNRGINITIYGKTFRVVDCDQFTQVFLESQGIELNPPEKMALDPYTELRKQPLRKYVTPSDFDQLKQFLTFDKQVLRFYAIWDDTDSMYGECRTYIIHYYLMDDTVEIREVHERNDGRDPFPLLMNRQRVPKVLVENAKNFPQCVLEISDQEVLEWYTAKDFIVGKSLTILGRTFFIYDCDPFTRRYYKEKFGITDLPRIDVSKREPPPVKQELPPYNGFGLVEDSAQNCFALIPKAPKKDVIKMLVNDNKVLRYLAVLESPIPEDKDRRFVFSYFLATDMISIFEPPVRNSGIIGGKYLGRTKVVKPYSTVDNPVYYGPSDFFIGAVIEVFGHRFIILDTDEYVLKYMESNAAQYSPEALASIQNHVRKREAPAPEAESKQTEKDPGVQELEALIDTIQKQLKDHSCKDNIREAFQIYDKEASGYVDRDMFFKICESLNVPVDDSLVKELIRMCSHGEGKINYYNFVRAFSN
partner: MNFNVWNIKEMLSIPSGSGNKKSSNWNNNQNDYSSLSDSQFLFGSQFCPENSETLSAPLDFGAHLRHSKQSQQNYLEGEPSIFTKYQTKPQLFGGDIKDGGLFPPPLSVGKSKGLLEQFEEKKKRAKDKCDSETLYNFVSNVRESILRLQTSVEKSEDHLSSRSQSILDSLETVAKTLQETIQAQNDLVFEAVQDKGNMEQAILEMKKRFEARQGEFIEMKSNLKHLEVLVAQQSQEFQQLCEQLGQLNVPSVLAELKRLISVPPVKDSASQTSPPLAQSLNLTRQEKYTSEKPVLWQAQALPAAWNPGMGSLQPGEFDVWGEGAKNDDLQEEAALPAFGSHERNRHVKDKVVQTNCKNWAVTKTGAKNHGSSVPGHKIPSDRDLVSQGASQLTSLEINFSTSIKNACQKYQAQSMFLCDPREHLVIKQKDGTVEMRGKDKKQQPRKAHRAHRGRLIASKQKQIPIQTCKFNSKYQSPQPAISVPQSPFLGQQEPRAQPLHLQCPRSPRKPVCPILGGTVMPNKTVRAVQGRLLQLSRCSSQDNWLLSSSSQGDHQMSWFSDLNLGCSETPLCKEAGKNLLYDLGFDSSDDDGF
B2: Inactive peptidyl-prolyl cis-trans isomerase FKBP6 (Homo sapiens), O75344 (parent)
chain: MGGSALNQGVLEGDDAPGQSLYERLSQRMLDISGDRGVLKDVIREGAGDLVAPDASVLVKYSGYLEHMDRPFDSNYFRKTPRLMKLGEDITLWGMELGLLSMRRGELARFLFKPNYAYGTLGCPPLIPPNTTVLFEIELLDFLDCAESDKFCALSAEQQDQFPLQKVLKVAATEREFGNYLFRQNRFYDAKVRYKRALLLLRRRSAPPEEQHLVEAAKLPVLLNLSFTYLKLDRPTIALCYGEQALIIDQKNAKALFRCGQACLLLTEYQKARDFLVRAQKEQPFNHDINNELKKLASCYRDYVDKEKEMWHRMFAPCGDGSTAGES
partner: B1 partner

Variants of: B1
Conditions: with iho1_human IHO1, Q8IYA8

| Variant | effect of a mutation on the interaction |
| --- | --- |
| P77T | disrupting interaction strength |
| R159W | with no effect |
| R221H | disrupting interaction strength |
| A394S | disrupting interaction strength |
| M448T | with no effect |
| T508R | disrupting interaction strength |

Variants of: B2
Conditions: with iho1_human IHO1, Q8IYA8

| Variant | effect of a mutation on the interaction |
| --- | --- |
| MGGSALNQGVLEGDDAPGQSLYERLSQRMLDISGDRGVLKDVIREGAGDLVAPDASVLVKYSGYLEHMDRPFDSNYFRKTPRLMKLGEDITLWGMELGLLSMRRGELARFLFKPNYAYGTLGCPPLIPPNTTVLFEIELLDFLDCAESDKFCALSAEQQDQFPLQKVLKVAATEREFGNYLFRQNRFYDAKVRYKRALLLLHRRSAPPEEQHLVEAAKLPVLLNLSFTYLKLDRPTIALCYGEQALIIDQKNAKALFRCGQACLLLTEYQKARDFLVRAQKEQPFNHDINNELKKLASCYRDYVDKEKEMWHRMFAPCGDGSTAGES [R202H] | with no effect |
| MGGSALNQGVLEGDDAPGQSLYERLSQRMLDISGDRGVLKDVIREGAGDLVAPDASVLVKYSGYLEHMDRPLDSNYFRKTPRLMKLGEDITLWGMELGLLSMRRGELARFLFKPNYAYGTLGCPPLIPPNTTVLFEIELLDFLDCAESDKFCALSAEQQDQFPLQKVLKVAATEREFGNYLFRQNRFYDAKVRYKRALLLLRRRSAPPEEQHLVEAAKLPVLLNLSFTYLKLDRPTIALCYGEQALIIDQKNAKALFRCGQACLLLTEYQKARDFLVRAQKEQPFNHDINNELKKLASCYRDYVDKEKEMWHRMFAPCGDGSTAGES [F72L] | with no effect |
